This note sets out measurements from patent US20200181597A1, “Composition and Application of Arginine-depleting Agents for Cancer, Obesity, Metabolic Disorders, and Related Complications and Comorbidities” (THE HONG KONG POLYTECHNIC UNIVERSITY, priority 2018, published 2020).

A short description of experiment [1]: Normal lean mice on chow diet, 500U at 10-day intervals for 4 weeks. The experiment is classed as in vivo, C57BL/6J male mice. An excerpt:
Thus, we treated normal lean C57BL/6J male mice fed an ordinary chow diet via i.p. injection of 500U N-ABD094-rhArg (SEQ ID NO: 50) at 10-day intervals for 4 weeks. After 4 weeks of treatment, there was over 25% reduction of visceral (perigondal, perirenal and mesenteric fad pad) and subcutaneous (inguinal fat pad) fat mass (FIG. 15A) in comparison with the control mice injected with the vehicle (saline).
Obesity is highly associated with insulin resistance. We therefore conducted both in vivo and in vitro study to determine whether N-ABD094-rhArg (SEQ ID NO: 50) treatment will have effects on insulin sensitivity. […] At 24-hour after culture in N-ABD094-rhArg (SEQ ID NO: 50) or control (without addition of N-ABD094-rhArg) medium, primary hepatocytes were stimulated with 100 nM insulin for 20 min. Cells were then collected for Western blot analysis to detect phosphorylated protein kinase B (pAkt), which is commonly used as marker of insulin signaling.

Experiment [2] in a line: Prevention of HFD-induced obesity, female mice. The experiment is classed as in vivo, C57BL/6J female mice. To be noted: 300U weekly. An excerpt: FIG. 21 illustrates that concurrent treatment with 300U N-ABD094-rhArg (SEQ ID, NO: 50) [HFD(rhArg) group] once a week could effectively prevent HFD-induced obesity in C57BL/6J female mice. (A) Bodyweight of mice fed a HFD from 8 week old for 12 weeks, and currently treated with N-ABD094-rhArg or vehicle. Vehicle-treated female mice fed a LFD served as the lean control [LFD(vehicle) group]. (B) Weight of fat pad at main visceral (perigonadal, perirenal and mesenteric) and subcutaneous (inguinal) depots. *P<0.05, one-way ANOVA followed by Fisher's LSD. Data are expressed as mean±SEM, n=5 for each group.
FIG. 22 illustrates that concurrent treatment with 300U N-ABD094-rhArg (SEQ ID NO: 50) [HFD(rhArg) group] once a week could effectively prevent HFD-induced insulin resistance and glucose intolerance in C57BL/6J female mice. (A) Insulin tolerance test (ITT) conducted at 7 week after feeding a HFD. (B) Glucose tolerance test (GTT) conducted at 11 week after feeding a HFD. ITT and GTT results are expressed as area under the curve (AUC). *P<0.05, one-way ANOVA followed by Fisher's LSD. Data are expressed as mean±SEM, n=5 for each group.
After confirming the anti-obesity effect of N-ABD094-rhArg (SEQ ID NO: 50) on male mice, the effect of N-ABD094-rhArg (SEQ ID NO: 50) on female mice (n=5 in each group) was studied to determine if there was any sex difference.

The subject of experiment [3] is mouse 3T3-L1 preadipocytes. As to the kind of experiment: 3T3-L1 preadipocyte differentiation (oil red O, qRT-PCR). In kind it is cell-based. Here is the method:
FIG. 23 illustrates that arginine depletion by adding N-ABD094-rhArg (SEQ ID NO: 50) (rhArg), bovine arginase or native arginine deiminase (ADI) to the culture medium, or using arginine-free medium inhibited the differentiation of mouse 3T3-L1 preadipocytes into adipocytes. […] (*The culture medium contains 0.4 mM L-arginine and can be converted into 0.4 mM L-ornithine and 0.4 mM urea by arginase, or 0.4 mM L-citrulline by ADI.). Cells grown in culture medium without addition of arginine depleting agents or metabolic products of arginase/ADI served as the control. Lipids in cells were stained with oil red O at 6 days after exposure to specific differentiation-inducing factors added to the medium.
FIG. 24 illustrates that N-ABD094-rhArg (SEQ ID NO: 50) could suppress adipogenic and lipogenic genes in 3T3-L1 preadipocytes. Mouse 3T3-L1 preadipocytes were cultured for 6 days in medium supplemented with specific factors to induce differentiation into adipocytes (differentiated). Cells grown in medium without these factors remained undifferentiated. The medium was added with 2U/mL N-ABD094-rhArg (SEQ ID NO: 50) (rhArg). Cells grown in medium without the addition of N-ABD094-rhArg served as the control. The mRNA expression levels of several crucial (A) transcriptional regulators of adipogenesis, and (B) enzymes in lipogenic pathways were determined by real-time qRT-PCR, and expressed relative to the undifferentiated (control) group, which is set as 1. *P<0.05, one-way ANOVA followed by Fisher's LSD. Data are expressed as mean±SEM, n=3 for each group.
FIG. 25 illustrates the response of 3T3-L1 preadipocytes to various concentrations of arginine Mouse 3T3-L1 preadipocytes were cultured in arginine-free medium with or without addition of varying concentrations of L-arginine for 6 days. Cells cultured in normal arginine-containing medium supplemented with differentiation inducing factors served as the positive (+ve) control of differentiation, while cells cultured in normal arginine-containing medium without supplementation of differentiation inducing factors served as the negative (−Ve) control of differentiation. One group of cells was cultured in normal arginine-containing medium supplemented with differentiation inducing factors and treated with 5U/mL N-ABD094-rhArg (SEQ ID NO: 50) (rhArg) to inhibit differentiation. (A) Cells were stained for lipids with oil red O, and staining intensity was quantified by measuring optical density, which is expressed as the percentage against the +ve control group. (B) The mRNA levels of several crucial lipogenesis related genes are expressed relative to cells cultured in arginine-free medium, which is set as 1. Data are expressed as mean±SEM, n=3 for each group.
To test the effect of N-ABD094-rhArg (SEQ ID NO: 50) on fat cells, mouse 3T3-L1 preadipocytes were used, which are commonly employed as cell-based model for studying adipogenesis [Green and Meuth, 1974, Cell 3:127-133].
For orientation: In qPCR the cycle at which signal appears reflects the starting amount.

A short description of experiment [4]: DIO mice treated with 600U for 20 weeks. In kind it is in vivo, C57BL/6J male mice. An excerpt: Together, these findings support that N-ABD094-rhArg (SEQ ID NO: 50) is safe and effective for long term use.
Where [5] appears, read: 500U at 10-day intervals, 4 weeks.

B1: N-ABD094-rhArg: albumin binding domain ABD094 fused N-terminally to recombinant human arginase I, SEQ ID NO: 50 (protein)
chain: MHHHHHHDEAVDANSLAEAKEAANAELDSYGVSDFYKRLIDKAKTVEGVEALKDAILAALPSGSNNNNNNGSGGMSAKSRTIGIIGAPFSKGQPRGGVEEGPTVLRKAGLLEKLKEQECDVKDYGDLPFADIPNDSPFQIVKNPRSVGKASEQLAGKVAEVKKNGRISLVLGGDHSLAIGSISGHARVHPDLGVIWVDAHTDINTPLTTTSGNLHGQPVSFLLKELKGKIPDVPGFSWVTPCISAKDIVYIGLRDVDPGEHYILKTLGIKYFSMTEVDRLGIGKVMEETLSYLLGRKKRPIHLSFDVDGLDPSFTPATGTPVVGGLTYREGLYITEEIYKTGLLSGLDIMEVNPSLGKTPEEVTRTVNTAVAITLACFGLAREGNHKPIDYLNPPK
modifications: Mn2+; N-ABD094-rhArg, Synthesized in the Lab
B1: in experiment [1] (setting [5]), the “mRNA levels of Acc1, Fasn, Scd1 in visceral WAT and liver” value is “dramatically suppressed”; the “size of adipocytes in visceral WAT (histology)” value was “prominent reduction”. For the same molecule, in experiment [1] (500U i.p. at 10-day intervals, after 4 weeks), the “reduction of visceral and subcutaneous fat mass vs vehicle” value is “over 25%”. Further, the “insulin sensitivity in insulin tolerance test (ITT)” value in experiment [1] (after 2 weeks of treatment) is recorded as “significant increase”. The “protection from weight gain and excessive accumulation of WAT” value in experiment [2] (12 weeks) is listed as “similarly effective”. For the same molecule, the “insulin sensitivity (ITT) and glucose tolerance (GTT)” value in experiment [2] (ITT week 7, GTT week 11) is on record as “improve”. Moreover, in experiment [3] (2U/mL, 6 days), the “mRNA levels of adipogenic transcription factors and lipogenic enzymes” value is reported as “significantly suppressed”. For the same molecule, the “adipogenesis and lipogenesis in 3T3-L1 cells (oil red O)” value in experiment [3] (added to culture medium, 6 days of differentiation) was “effectively inhibit”. In experiment [4] (600U for 20 weeks, Biochrom 30 detection limit), this molecule displayed a plasma arginine concentrations below 3 µM. In addition, the bodyweight entry in experiment [4] (600U, by 5 weeks, maintained to 20 weeks without rebound) is on record as “reduced to a level similar to the lean control mice”.
